Experimental data as given in PMC3408589 (Chemistry & biology, 2012).

Biological target: the molecule itself
Experiment: cross-linking

B1: untagged human ribonucleotide reductase α expressed in COS-1 cells (monocistronic cassette) (enzyme, UniProt P23921 1-792, looked up)
chain: MHVIKRDGRQERVMFDKITSRIQKLCYGLNMDFVDPAQITMKVIQGLYSGVTTVELDTLAAETAATLTTKHPDYAILAARIAVSNLHKETKKVFSDVMEDLYNYINPHNGKHSPMVAKSTLDIVLANKDRLNSAIIYDRDFSYNYFGFKTLERSYLLKINGKVAERPQHMLMRVSVGIHKEDIDAAIETYNLLSERWFTHASPTLFNAGTNRPQLSSCFLLSMKDDSIEGIYDTLKQCALISKSAGGIGVAVSCIRATGSYIAGTNGNSNGLVPMLRVYNNTARYVDQGGNKRPGAFAIYLEPWHLDIFEFLDLKKNTGKEEQRARDLFFALWIPDLFMKRVETNQDWSLMCPNECPGLDEVWGEEFEKLYASYEKQGRVRKVVKAQQLWYAIIESQTETGTPYMLYKDSCNRKSNQQNLGTIKCSNLCTEIVEYTSKDEVAVCNLASLALNMYVTSEHTYDFKKLAEVTKVVVRNLNKIIDINYYPVPEACLSNKRHRPIGIGVQGLADAFILMRYPFESAEAQLLNKQIFETIYYGALEASCDLAKEQGPYETYEGSPVSKGILQYDMWNVTPTDLWDWKVLKEKIAKYGIRNSLLIAPMPTASTAQILGNNESIEPYTSNIYTRRVLSGEFQIVNPHLLKDLTERGLWHEEMKNQIIACNGSIQSIPEIPDDLKQLYKTVWEISQKTVLKMAAERGAFIDQSQSLNIHIAEPNYGKLTSMHFYGWKQGLKTGMYYLRTRPAANPIQFTLNKEKLKDKEKVSKEEEEKERNTAAMVCSLENRDECLMCGS
stoichiometry N: 6
